Target: Pf12 (His26 to Ser321) (Plasmodium falciparum) (UniProt C6KSX0)
Test: ITC; Pf12 10 μM in the sample cell; full length Pf41 or Pf41ΔID 100 μM added in 16 injections of 2.4 μL, 180 s apart; 25°C; one-site model; single experiment representative of two

## Pf41 full length (mature, Lys21 to Ser378) (from UniProt Q8I1Y0 21-378) (natural protein)
  Kd: 27.7 nM
  dH: -33.9 kcal/mol
  stoichiometry N: 0.85 Pf41:Pf12
